Test results: US20150147316A1 (Seagen, published 2015)

B1: m2H12-SGD-1269 (other)
VH: QVQLQQSGPELVRPGTFVKISCKASGYTFTNYDINWVNQRPGQGLEWIGWIYPGDGSTKYNEKFKAKATLTADKSSSTAYLQLNNLTSENSAVYFCASGYEDAMDYWGQGTSVTVSS
VL: DIKMTQSPSSMYASLGERVIINCKASQDINSYLSWFQQKPGKSPKTLIYRANRLVDGVPSRFSGSGSGQDYSLTISSLEYEDMGIYYCLQYDEFPLTFGAGTKLELK
modifications: conjugated to drug-linker SGD-1269 (mcMMAF); sites and load not stated for the murine antibody
B2: HAcL (antibody, V domains shown)
VH: QVQLVQSGAEVKKPGASVKVSCKASGYTFTNYDINWVRQAPGQGLEWMGWIYPGDGSTKYNEKFKARVTMTTDTSTSTAYMELRSLRSDDTAVYYCARGYEDAMDYWGQGTTVTVSS
VL: DIKMTQSPSSMYASLGERVIINCKASQDINSYLSWFQQKPGKSPKTLIYRANRLVDGVPSRFSGSGSGQDYSLTISSLEYEDMGIYYCLQYDEFPLTFGAGTKLELK
notes: Hybrid of humanized heavy chain HA and the chimeric light chain (murine VL, human constant region)
B3: HEcL (antibody, V domains shown)
VH: QVQLVQSGAEVKKPGASVKVSCKASGYTFTNYDINWVRQAPGQGLEWIGWIYPGDGSTKYNEKFKARVTMTTDTSTSTAYMELRSLRSDDTAVYYCARGYEDAMDYWGQGTTVTVSS
VL: DIKMTQSPSSMYASLGERVIINCKASQDINSYLSWFQQKPGKSPKTLIYRANRLVDGVPSRFSGSGSGQDYSLTISSLEYEDMGIYYCLQYDEFPLTFGAGTKLELK
notes: Hybrid of humanized heavy chain HE and the chimeric light chain (murine VL, human constant region)
B4: HHcL (antibody, V domains shown)
VH: QVQLVQSGAEVKKPGASVKVSCKASGYTFTNYDINWVRQAPGQGLEWMGWIYPGDGSTKYNEKFKARVTMTTDTSTSTAYMELSSLTSDDTAVYYCARGYEDAMDYWGQGTTVTVSS
VL: DIKMTQSPSSMYASLGERVIINCKASQDINSYLSWFQQKPGKSPKTLIYRANRLVDGVPSRFSGSGSGQDYSLTISSLEYEDMGIYYCLQYDEFPLTFGAGTKLELK
notes: Hybrid of humanized heavy chain HH and the chimeric light chain (murine VL, human constant region)
B5: HBcL (antibody, V domains shown)
VH: QVQLVQSGAEVKKPGASVKVSCKASGYTFTNYDINWVRQAPGQGLEWMGWIYPGDGSTKYNEKFKARVTMTADTSTSTAYMELRSLRSDDTAVYYCARGYEDAMDYWGQGTTVTVSS
VL: DIKMTQSPSSMYASLGERVIINCKASQDINSYLSWFQQKPGKSPKTLIYRANRLVDGVPSRFSGSGSGQDYSLTISSLEYEDMGIYYCLQYDEFPLTFGAGTKLELK
notes: Hybrid of humanized heavy chain HB and the chimeric light chain (murine VL, human constant region)
B6: HDcL (antibody, V domains shown)
VH: QVQLVQSGAEVKKPGASVKVSCKASGYTFTNYDINWVRQAPGQGLEWMGWIYPGDGSTKYNEKFKARVTMTTDKSTSTAYMELRSLRSDDTAVYYCARGYEDAMDYWGQGTTVTVSS
VL: DIKMTQSPSSMYASLGERVIINCKASQDINSYLSWFQQKPGKSPKTLIYRANRLVDGVPSRFSGSGSGQDYSLTISSLEYEDMGIYYCLQYDEFPLTFGAGTKLELK
notes: Hybrid of humanized heavy chain HD and the chimeric light chain (murine VL, human constant region)
B7: HFcL (antibody, V domains shown)
VH: QVQLVQSGAEVKKPGASVKVSCKASGYTFTNYDINWVNQRPGQGLEWMGWIYPGDGSTKYNEKFKARVTMTTDTSTSTAYMELRSLRSDDTAVYYCARGYEDAMDYWGQGTTVTVSS
VL: DIKMTQSPSSMYASLGERVIINCKASQDINSYLSWFQQKPGKSPKTLIYRANRLVDGVPSRFSGSGSGQDYSLTISSLEYEDMGIYYCLQYDEFPLTFGAGTKLELK
notes: Hybrid of humanized heavy chain HF and the chimeric light chain (murine VL, human constant region)
B8: HGcL (antibody, V domains shown)
VH: QVQLVQSGAEVKKPGASVKVSCKASGYTFTNYDINWVRQAPGQGLEWMGWIYPGDGSTKYNEKFKAKATLTTDTSTSTAYMELRSLRSDDTAVYYCARGYEDAMDYWGQGTTVTVSS
VL: DIKMTQSPSSMYASLGERVIINCKASQDINSYLSWFQQKPGKSPKTLIYRANRLVDGVPSRFSGSGSGQDYSLTISSLEYEDMGIYYCLQYDEFPLTFGAGTKLELK
notes: Hybrid of humanized heavy chain HG and the chimeric light chain (murine VL, human constant region)

What follows are binders tested against T1, human CD33 (human, UniProt P20138 18-364) (assay: cell-based or functional assay).
T1 sequence (P20138 18-364): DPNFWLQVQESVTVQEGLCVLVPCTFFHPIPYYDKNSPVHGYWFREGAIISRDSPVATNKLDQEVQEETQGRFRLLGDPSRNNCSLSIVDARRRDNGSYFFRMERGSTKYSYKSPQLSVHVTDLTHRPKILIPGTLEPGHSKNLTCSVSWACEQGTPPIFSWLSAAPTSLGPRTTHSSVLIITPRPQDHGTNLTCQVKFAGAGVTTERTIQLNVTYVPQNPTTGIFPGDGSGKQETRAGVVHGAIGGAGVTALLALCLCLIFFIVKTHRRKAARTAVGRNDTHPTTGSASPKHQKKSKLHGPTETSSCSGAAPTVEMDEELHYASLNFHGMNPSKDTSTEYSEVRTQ
With B1 the “IC50, cytotoxicity on HL-60 cells (96 h, CelltiterGlo)” value was 1.3 ng/mL.

Each binder was assayed against T1, human CD33 (assay: flow cytometry on HEL 92.1.7 AML cells).
B2: no binding (tested: 0.03 nM to 600 nM (methods)).
B3: no binding (tested: 0.03 nM to 600 nM (methods)).
B4: no binding (tested: 0.03 nM to 600 nM (methods)).
B5: no binding (tested: 0.03 nM to 600 nM (methods)).
B6: no binding (tested: 0.03 nM to 600 nM (methods)).
B7: no binding (tested: 0.03 nM to 600 nM (methods)).
B8: no binding (tested: 0.03 nM to 600 nM (methods)).
